The results in this text go back to publication PMC3098174.

Assay [1] deals with Stingray Pancreatic Lipase (Dasyatis pastinaca) (common stingray Dasyatis pastinaca). Kind of assay: lipase activity titration with colipase, Scatchard plot; apparent Kd from the slope of Scatchard plots; lipase (2.1 nM) with increasing amounts of colipase, emulsified olive oil as substrate, 6 mM NaTDC, pH 8.5, 37°C, pH-stat.
For assay [2] the target is unchanged.
For assay [3] the target is unchanged. The source holds these as a separate data set.
In assay [4] the target is chicken pancreatic lipase (chicken).
In assay [5] the target is dromedary pancreatic lipase (dromedary).
For assay [6], the target named is turkey pancreatic lipase (turkey).
The target of assay [7] is Stingray Pancreatic Lipase (Dasyatis pastinaca) (common stingray Dasyatis pastinaca). Kind of assay: lipase activity titration with colipase, Scatchard plot; apparent Kd from the slope of Scatchard plots; lipase (2.1 nM) with increasing amounts of colipase, emulsified olive oil as substrate, 6 mM NaTDC, pH 8.5, 37°C, pH-stat. This is another data set of the same source.
The target in assay [8] is chicken pancreatic lipase (chicken). The assay is described as above.
Assay [9] addresses dromedary pancreatic lipase (dromedary). The description is as above.
Assay [10] deals with turkey pancreatic lipase (turkey). The description is as above.

Where two headings read alike, the source gives them in different places.

Stingray Pancreatic Lipase (Dasyatis pastinaca) (common stingray Dasyatis pastinaca), sequence (A0A059TA26 entry or part of it): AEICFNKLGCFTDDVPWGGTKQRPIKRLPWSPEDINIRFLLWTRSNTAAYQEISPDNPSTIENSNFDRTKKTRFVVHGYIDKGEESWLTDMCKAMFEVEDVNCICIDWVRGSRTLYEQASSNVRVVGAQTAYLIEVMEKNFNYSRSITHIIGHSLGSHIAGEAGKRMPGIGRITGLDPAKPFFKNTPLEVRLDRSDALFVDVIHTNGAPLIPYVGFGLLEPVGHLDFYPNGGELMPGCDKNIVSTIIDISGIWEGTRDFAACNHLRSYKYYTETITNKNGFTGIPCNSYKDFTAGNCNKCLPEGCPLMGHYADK

As for “chicken pancreatic colipase (natural protein)”, in [1], the Kd was determined as 3.9 nM. Further, the kcat/Kd of SPL activated by colipase (olive oil emulsion, 6 mM NaTDC) (S^-1 M^-1 10^-9) in [2] came out at 576.

For “stingray pancreatic colipase (Dasyatis pastinaca) (natural protein)”, the kcat/Kd of lipase activated by stingray colipase (olive oil emulsion, 6 mM NaTDC) (S^-1 M^-1 10^-9) was determined as 2070 in assay [3], 611 in assay [4], 930 in [5] and 946 in assay [6]. Besides, the Kd turned out to be 1.2 nM in assay [1]; 1.15 nM in [7]; 4.5 nM in assay [8]; 3 nM in assay [9]; 2.9 nM in [10]. Besides, the kcat/Kd of SPL activated by colipase (olive oil emulsion, 6 mM NaTDC) (S^-1 M^-1 10^-9) in assay [2] was determined as 2070.

With “turkey pancreatic colipase (natural protein)”, in assay [1], the Kd worked out at 3.6 nM. For the same substance, in assay [2], the kcat/Kd of SPL activated by colipase (olive oil emulsion, 6 mM NaTDC) (S^-1 M^-1 10^-9) amounted to 599.

For “dromedary pancreatic colipase (natural protein)”, the Kd in assay [1] came out at 2.2 nM. For the same substance, the kcat/Kd of SPL activated by colipase (olive oil emulsion, 6 mM NaTDC) (S^-1 M^-1 10^-9) in assay [2] turned out to be 1140.
